The chains are these.
B1: #6-55: chicken-mouse chimeric anti-FSTL1 antibody clone; variable regions SEQ ID NO: 783 (light), 785 (heavy) (antibody, V domains shown)
VH: AVTLDESGGGLQTPGGALSLVCKGSGFTFTSVTMQWVRQAPGKGLEWVASVCSGSSTYYAPAVKGRATISRDNGQSTVRLQLSNLRPEDTGTYYCAKIAGRARWSCTSAAYNIDAWGHGTEVIVSS
VL: ASTQPSSVSAIPGETVKITCSGGGNNYGWYQQRSPGSAPVTVIYYNDNRPSNIPSRFSGSTSGSTSTLTITGVQADDEAIYYCGSWDSNTDSGIFGAGTTLTVL
modifications: mouse constant regions
B2: #7-34: chicken-mouse chimeric anti-FSTL1 antibody clone; variable regions SEQ ID NO: 787 (light), 789 (heavy) (antibody, V domains shown)
VH: AVTLDESGGGLQTPGGGLSLVCKASGFTFSSVTMQWVRQAPGKGLEWVASICSGSSTYYGPAVKGRATISRDNGQNTVRLQLNNLRAEDTATYYCAKIVGRGRWSCTSAAYNIDAWGHGTEVIVSS
VL: B1 VL with I11N, R33K, D47N, D76E, I80V, W86Y, D87E, S88G, N89S
modifications: mouse constant regions
B3: #8-1: chicken-mouse chimeric anti-FSTL1 antibody clone; variable regions SEQ ID NO: 791 (light), 793 (heavy) (antibody, V domains shown)
VH: AVTLDESGGGLQTPGGALSLVCKGSGFTFSSFNMFWVRQAPGKGLEWVAGIGKDGVPKYGAAVDGRATISKDNGQSTMRLQLNNLRAEDTGTYFCAKAAGGCSYDWCGIYAGDIDTWGHGTEVIVSS
VL: ASTQPSSVSANPGEAVKITCSGGSGSYYGWYQQKSPGSAPVTVIYNNNQRPSDIPSRFSGSKSGSTATLTITGVQAEDEAVYFCGGYDSSSGHGGIFGAGTTLTVL
modifications: mouse constant regions

Changes are numbered by the printed parent chain.

One test deals with mouse melanoma cells (B16-F10) forced to express Snail. The test can be described thus: In vivo, intratumoral administration, Snail-positive B16-F10 bone metastasis model (Example 17). Set-up: species or system C57BL/6N mice. The settings on record: intratumoral 200 μg/0.1 mL/tumor on day 7; GFP-positive tumor cells in bone marrow, day 14. An excerpt:
(§1) Three antibodies were comparatively analyzed for their antitumor effects and an immunosuppression-mitigating effect using bone metastasis models in which mouse melanoma cells B16-F10 forced to express Snail were subcutaneously and intravenously transplanted in C57BL/6N mice.
1. Experiment Group (n=5) • 1. No treatment • 2. Control IgG (anti-DNP) • 3. Anti-FSTL1 Clone #6-55 • 4. Anti-FSTL1 Clone #7-34 • 5. Anti-FSTL1 Clone #8-1 2. Experimental procedure • Day 0: transplantation of GFP-positive and Snail-positive B16-F10 tumor cells (5×10^5 cells subcutaneously & 1×10^5 cells intravenously) • Day 7: intratumoral administration of the antibody (200 μg/0.1 mL/tumor) • Day 14: various assays (with a focus on flow cytometry analysis) 3. Index for drug efficacy evaluation • Effects on the growth of subcutaneous tumor (calculation of tumor volume by tumor size measurement): measured 7, 11, and 14 days after tumor implantation (FIG. 11C) • Effects on bone metastasis (GFP-positive tumor cells in bone marrow) (FIG. 11A) • Effects on the expansion of mesenchymal stem cells (CD45-negative cells in bone marrow and in the spleen) (FIGS. 11B and 11D) • Effects on the expansion of immunosuppressive Treg cells (CD4-positive and Foxp3-positive cells in bone marrow or the spleen) (FIG. 11D) • Other immunosuppressive properties (FIG. 11D)
In order to evaluate in vivo antibody activity, antitumor effects and immunosuppression-mitigating effects were comparatively analyzed using bone metastasis models in which mouse melanoma cells (B16-F10) forced to express Snail were subcutaneously and intravenously transplanted in C57BL/6N mice. An anti-FSTL1 antibody to be tested was administered into tumor. On day 0, GFP-positive and Snail-positive B16-F10 tumor cells (5×10^5 cells subcutaneously & 1×10^5 cells intravenously) were transplanted. On day 7, the antibody was administered into subcutaneous tumor (200 μg/0.1 mL/tumor). On day 14, various assays were conducted. […]
On to B1, for which the bone metastasis entry is “bone metastasis was suppressed by only #6-55 and #8-1”.
Take B2: the bone metastasis entry is “no suppressive effect was seen”.
Consider B3, for which the bone metastasis result was “bone metastasis was suppressed by only #6-55 and #8-1”.

Another test deals with GFP-positive and Snail-positive B16-F10 tumor cells. Described as above. Set-up: species or system mouse. As to conditions: intratumoral 200 μg/0.1 mL/tumor on day 7; day 14.
From the text: as §1
1. Experiment Group (n=5) • 1. No treatment • 2. Control IgG (anti-DNP) • 3. Anti-FSTL1 Clone #6-55 • 4. Anti-FSTL1 Clone #7-34 • 5. Anti-FSTL1 Clone #8-1
• Day 0: transplantation of GFP-positive and Snail-positive B16-F10 tumor cells (5×10^5 cells subcutaneously & 1×10^5 cells intravenously) • Day 7: intratumoral administration of the antibody (200 μg/0.1 mL/tumor) • Day 14: various assays (with a focus on flow cytometry analysis)
• Effects on the growth of subcutaneous tumor (calculation of tumor volume by tumor size measurement): measured 7, 11, and 14 days after tumor implantation (FIG. 41C) • Effects on bone metastasis (GFP-positive tumor cells in bone marrow) (FIG. 41A) • Effects on the expansion of mesenchymal stem cells (CD45-negative cells in bone marrow and in the spleen) (FIGS. 41B and 41D) • Effects on the expansion of immunosuppressive Treg cells (CD4-positive and Foxp3-positive cells in bone marrow or the spleen) (FIG. 41D) • Other immunosuppressive properties (FIG. 41D)
In order to evaluate in vivo antibody activity, antitumor effects and immunosuppression-mitigating effects were comparatively analyzed using bone metastasis models in which mouse melanoma cells ([…]) forced to express Snail were subcutaneously and intravenously transplanted in C57BL/6N mice. […]
It is known that when Snail-positive tumor cells are subcutaneously or intravenously transplanted to mice, the tumor metastasizes preferentially to bone marrow in addition to various organs, and this incurs the expansion of mesenchymal stem cells (MSCs) originating in the bone marrow, thereby systemically and strongly suppressing the induction of antitumor immunity (Cancer Research 73: 6185, 2013). […] The percentage (%) of CD45^− cells in the bone marrow cells was analyzed by flow cytometry. […]
Regarding B1, the “bone metastasis (GFP-positive tumor cells in bone marrow)” value is “suppressed”.
Consider B2, for which the “bone metastasis (GFP-positive tumor cells in bone marrow)” value was “no suppressive effect was seen”.
In the case of B3, the “bone metastasis (GFP-positive tumor cells in bone marrow)” value is listed as “suppressed”.

The values above are taken from patent US20180021429A1, “ANTICANCER AGENTS OR ANTIMETASTATIC AGENTS USING FSTL1 AND COMBINATION DRUG THEREOF” (PHARMA FOODS INTERNATIONAL CO., LTD., priority 2015, published 2018).
